From patent US20100016313A1, “INTESTINAL ALKALINE PHOSPHATASE MODULATORS AND USES THEREOF” (Burnham Institute for Medical Research, priority 2008, published 2010)

Experiment: Kinetic parameters of recombinant mouse dIAP, gIAP and EAP using p-NPP as substrate
Type: biochemical
Conditions: p-NPP as substrate, pH 9.8; means ± SD
Description: The epithelium of the mouse small intestine expresses two intestine specific AP genes, Akp3 and Akp6, and low levels of Akp5, which is not intestine specific (Narisawa, et al, 2007). AP proteins encoded by Akp3, Akp5 and Akp6 were designated duodenal IAP or dIAP, embryonic AP or EAP and global IAP or gIAP, respectively.

B1: EAP: recombinant mouse embryonic alkaline phosphatase encoded by Akp5 (protein, UniProt P24823 19-502, looked up)
Alkaline phosphatase, germ …: VIPVEEENPAFWNRKAAEALDAAKKLKPIQTSAKNLVILMGDGMGVSTVTATRILKGQQQGHLGPETQLAMDRFPHMALSKTYNTDKQIPDSAGTGTAFLCGVKTNMKVIGLSAAARFNQCNTTWGNEVVSVMHRAKKAGKSVGVVTTTSVQHASPAGTYAHTVNRGWYSDAQMPASALQDGCKDISTQLISNMDIDVILGGGRKFMFPKGTPDQEYPTDTKQAGTRLDGRNLVQEWLAKHQGARYVWNRSELIQASLNRSVTHLMGLFEPNDMKYEIHRDPAQDPSLAEMTEVAVRMLSRNPKGFYLFVEGGRIDHGHHETVAYRALTEAVMFDSAVDKADKLTSEQDTMILVTADHSHVFSFGGYTQRGASIFGLAPFKAEDGKSFTSILYGNGPGYKLHNGARADVTEEESSNPTYQQQAAVPLSSETHSGEDVAIFARGPQAHLVHGVQEQNYIAHVMAFAACLEPYTDCGLASPAGQSS
Km: 140 ± 30 µM
kcat: 8.4 ± 1.1 s⁻¹
